Where no end group is shown, it is not given here.
B1: Phage-1150 (peptide)
peptide: YCHGHLPQYMSKCM
B2: Phage-1146 (peptide)
peptide: YCEGHSAEHMPKCL
B3: Phage-1152 (peptide)
peptide: YCAGHAPEYISKCL
B4: Phage-1154 (peptide)
peptide: YCEGHAAEYLWKCL
B5: Phage-1155 (peptide)
peptide: YCDGHRPEYMSKCL
B6: Phage-1151 (peptide)
peptide: YCAGHLDIYLAKCL
B7: Phage-1149 (peptide)
peptide: YCDGHSQEYMSKCL
B8: Phage-1148 (peptide)
peptide: YCDGHEARYMQKCL
B9: Phage-1147 (peptide)
peptide: YCVGHYPEYMEKCL
B10: Phage-1153 (peptide)
peptide: YCDGHSWEYLGKCL
B11: Phage-1178 (peptide)
peptide: YCDGHVVEYMSKCL
modifications: cysteine pairing not given here; also: displayed on phage by fusion to pIII, linker and pIII sequence not given here
notes: Clonal phage of the Peptide-87 library; not shown: fused to the pIII filament of the bacteriophage
B12: Phage-1172 (peptide)
peptide: YCDGHEQQYMEKCL
modifications: cysteine pairing not given here; also: displayed on phage by fusion to pIII, linker and pIII sequence not given here
notes: as for B11
B13: Phage-1169 (peptide)
peptide: YCEGHVAEYRAKCL
modifications: cysteine pairing not given here; also: displayed on phage by fusion to pIII, linker and pIII sequence not given here
notes: as for B11
B14: Phage-1173 (peptide)
peptide: YCDGHLQMYMMKCL
modifications: cysteine pairing not given here; also: displayed on phage by fusion to pIII, linker and pIII sequence not given here
notes: as for B11
B15: Phage-1170 (peptide)
peptide: YCQGHLPQYIEKCL
modifications: cysteine pairing not given here; also: displayed on phage by fusion to pIII, linker and pIII sequence not given here
notes: as for B11
B16: Phage-1174 (peptide)
peptide: YCEGHLYEYMWKCL
modifications: cysteine pairing not given here; also: displayed on phage by fusion to pIII, linker and pIII sequence not given here
notes: as for B11
B17: Phage-1176 (peptide)
peptide: YCDGHEAEYMWKCL
modifications: cysteine pairing not given here; also: displayed on phage by fusion to pIII, linker and pIII sequence not given here
notes: as for B11
B18: Phage-1175 (peptide)
peptide: YCVGHSEQYMAKCL
modifications: cysteine pairing not given here; also: displayed on phage by fusion to pIII, linker and pIII sequence not given here
notes: as for B11
B19: Phage-1171 (peptide)
peptide: YCEGHAAAYMGKCL
modifications: cysteine pairing not given here; also: displayed on phage by fusion to pIII, linker and pIII sequence not given here
notes: as for B11
B20: Phage-1177 (peptide)
peptide: YCEGHAEQYMKKCL
modifications: cysteine pairing not given here; also: displayed on phage by fusion to pIII, linker and pIII sequence not given here
notes: as for B11
B21: Phage-1157 (peptide)
peptide: YCEGHAGVYMAKCL
B22: Phage-1166 (peptide)
peptide: YCDGHSWIYMVKCL
B23: Phage-1156 (peptide)
peptide: YCEGHMPEYLAKCL
B24: Phage-1167 (peptide)
peptide: YCDGHLSVYMSKCL
B25: Phage-1163 (peptide)
peptide: YCEGHLKEYMQKCL
B26: Phage-1165 (peptide)
peptide: YCEGHRAEYMSKCL
B27: Phage-1159 (peptide)
peptide: YCAGHSSEYIGKCL
B28: Phage-1158 (peptide)
peptide: YCEGHSQTYMWKCL
B29: Phage-1160 (peptide)
peptide: YCEGHSQQYMWKCL
B30: Phage-1162 (peptide)
peptide: YCEGHAEQYMEKCL
B31: Phage-1168 (peptide)
peptide: YCEGHLPQYMSKCL
B32: Phage-1161 (peptide)
peptide: YCDGHLPDYMAKCL
B33: Phage-1164 (peptide)
peptide: YCEGHSYQYMQKCL

These binders were tested against T1, Anti-CD28 Fab (SEQ ID NOs: 696, 697) (assay: phage ELISA, clonal phage on biotinylated anti-CD28 Fab captured on neutravidin, anti-M13-HRP detection).
T1 construct: Biotinylated and captured on neutravidin coated plates in the phage ELISA
T1 sequence (VH, as listed by the source, chain 1 of 2): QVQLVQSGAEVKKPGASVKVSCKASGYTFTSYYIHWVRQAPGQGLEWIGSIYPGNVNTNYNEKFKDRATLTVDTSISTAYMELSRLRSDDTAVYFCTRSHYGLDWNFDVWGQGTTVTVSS
T1 sequence (VL, as listed by the source, chain 2 of 2): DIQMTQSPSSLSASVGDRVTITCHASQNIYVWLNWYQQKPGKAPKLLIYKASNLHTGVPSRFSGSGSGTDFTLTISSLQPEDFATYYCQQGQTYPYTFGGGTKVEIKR
Method: (§1) After panning, phage infected bacteria were plated out and colonies picked into 96 well blocks. Clonal phage was then amplified and separated from bacterial cells via centrifugation.
(§2) Clonal phage were harvested as crude supematants and screened via standard ELISAs. […] Prior to the addition of clonal phage, wells were incubated with blocking buffer and CD28 antigen or blocking buffer alone. Without washing or aspirating, clonal phage supematants were then added to the wells and incubated for a short time. Wells were then washed followed by detection of bound phage using a horse radish conjugated anti-M13 antibody. Clonal phage of interest were then sent for sequence analysis.

In order of rising “Anti-CD28 Fab signal (phage binding ELISA)” value:
1. B4  1.18
2. B5  1.18
3. B10  1.2
4. B1  1.21
5. B3  1.21
6. B6  1.21
7. B7  1.21
8. B8  1.21
9. B9  1.22
10. B2  1.23

Each binder was assayed against Anti-CD28 Fab (SEQ ID NOs: 696, 697) (assay: phage binding ELISA on captured anti-CD28 Fab; competitor CD28 antigen pre-incubated in the wells).
Target sequence in this assay (VH, as listed by the source, chain 1 of 2): as the sequence (VH, as listed by the source, chain 1 of 2) above
Target sequence in this assay (VL, as listed by the source, chain 2 of 2): as the sequence (VL, as listed by the source, chain 2 of 2) above
Method: as §1, §2

In order of falling “Anti-CD28 Fab signal in the presence of CD28” value:
1. B17  0.1
2. B13  0.09
3. B11  0.08
4. B19  0.08
5. B14  0.07
6. B16  0.07
7. B20  0.07
8. B12  0.06
9. B15  0.06
10. B18  0.06

The binders below were run against T2, Anti-CD28 Fab (SEQ ID NOs: 696, 697) (assay: phage binding ELISA; biotinylated anti-CD28 Fab on neutravidin plate, clonal phage supernatant, anti-M13 HRP detection).
T2 construct: In the phage ELISA the Fab was biotinylated and captured on neutravidin coated plates
T2 sequence (VH, as listed by the source, chain 1 of 2): as the sequence (VH, as listed by the source, chain 1 of 2) above
T2 sequence (VL, as listed by the source, chain 2 of 2): as the sequence (VL, as listed by the source, chain 2 of 2) above
Method: as §1, §2

In order of rising “Anti-CD28 Fab signal (phage binding ELISA)” value:
1. B24  1.15
2. B31  1.15
3. B22  1.16
4. B26  1.16
5. B33  1.16
6. B21  1.17
7. B25  1.17
8. B27  1.17
9. B28  1.17
10. B29  1.17
11. B30  1.17
12. B32  1.17
13. B23  1.18

The binders below were run against T2, Anti-CD28 Fab (SEQ ID NOs: 696, 697) (assay: phage binding ELISA with the Fab-coated wells pre-incubated with CD28 antigen (competitor: CD28), anti-M13 HRP detection).
Method: as §1, §2

In order of rising “Anti-CD28 Fab signal in the presence of CD28 (phage binding ELISA)” value:
1. B21  0.05
2. B29  0.05
3. B22  0.06
4. B27  0.06
5. B33  0.06
6. B23  0.07
7. B24  0.07
8. B25  0.07
9. B32  0.07
10. B28  0.08
11. B30  0.08
12. B26  0.09
13. B31  0.09

Each binder was assayed against T1, Anti-CD28 Fab (SEQ ID NOs: 696, 697) (assay: phage ELISA on captured anti-CD28 Fab, wells first incubated with CD28 antigen (competitor)).
Method: as §1, §2

In order of falling “Anti-CD28 Fab signal in the presence of CD28 (phage binding ELISA)” value:
1. B2  0.09
2. B4  0.09
3. B3  0.07
4. B5  0.07
5. B6  0.07
6. B8  0.07
7. B9  0.07
8. B1  0.06
9. B7  0.06
10. B10  0.05

What follows are binders tested against Anti-CD28 Fab (SEQ ID NOs: 696, 697) (assay: phage binding ELISA; biotinylated anti-CD28 Fab on neutravidin plate, clonal phage supernatant, anti-M13 HRP;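 also: crude clonal phage supernatants screened after wells were preincubated either with CD28 antigen in blocking buffer or with blocking buffer only, phage added without washing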).
Target sequence in this assay (VH, as listed by the source, chain 1 of 2): as the sequence (VH, as listed by the source, chain 1 of 2) above
Target sequence in this assay (VL, as listed by the source, chain 2 of 2): as the sequence (VL, as listed by the source, chain 2 of 2) above
Method: as §1, §2

In order of falling “Anti-CD28 Fab (SEQ ID NOs: 696, 697) signal” value:
1. B13  1.15
2. B12  1.14
3. B14  1.14
4. B15  1.14
5. B19  1.14
6. B16  1.13
7. B17  1.13
8. B18  1.13
9. B11  1.12
10. B20  1.12
